Experimental findings from article PMC12048488 are described below.

The assay deals with HTT-Q20 (endogenous knock-in huntingtin: mouse Htt with humanized HTT exon 1, normal polyQ) (human | mouse). Kind of assay: affinity purification with mass spectrometry; evaluation of antibodies: IP-MS from whole brain and striatum lysates of 8-week Q20 and Q140 mice with EPR5526, 2B7-4C9, 4E10-3E10 or 138-139 antibodies against mIgG controls.

B1: HAP40 (F8a1), Huntingtin-associated protein 40 (natural protein)
chain: MAAGSASSLGGGAWPGSEAGDFLARYRQVSNKLKKRFLRKPNVAEAGEQFAQLARELRAQECLPYAAWCQLAVARCQQALFHGPGEALALTEAARLFLRQECDARQRLGCPAAYGEPLQAAASALGAAVRLHLELGQPAAAAALCLELAAALRAVGQPAAAAGHFQRAAQLHLPLMPLAALQALGDAASCQLLARDYTGALALFTRMQRLAREHGGHPVQQLELLPQPPSGPQPPLSGPQPRPVLGSTLPLPQPPDHAPGSVAPSPGTLGAFADVLVRCEVSRVLLLLLLQPPPAKLLPEHAQTLEKYSWEAFDGHGQDTSGQLPEELFLLLQSLVMAAQEKDTEGIKKLQVEMWPLLTAEQNHLLHLVLQETISPSGQGV
For B1, the stoichiometry N (HTT:HAP40 ratio) was determined as 1.
